What was measured:
Assay in all cases: cell-based or functional assay
[1] = target: HIV-1 Env of pseudovirus CAP45.2.00.G3 (HIV-1)
[2] = target: HIV-1 Env of pseudovirus WITO4160.33 (HIV-1)
[3] = target: HIV-1 Env of pseudovirus 6244_13_B5_4576 (HIV-1)
[4] = target: HIV-1 Env of pseudovirus THRO4156.18 (HIV-1)
[5] = target: HIV-1 Env of pseudovirus 246F C1G (HIV-1)
[6] = target: HIV-1 Env of pseudovirus 1394C9G1(Rev-) (HIV-1)
[7] = target: HIV-1 Env of pseudovirus Q769.d22 (HIV-1)
[8] = target: HIV-1 Env of pseudovirus CAP210.2.00.E8 (HIV-1)
[9] = target: HIV-1 Env of pseudovirus ZM109F.PB4 (HIV-1)
[10] = target: HIV-1 Env of pseudovirus Ce0393_C3 (HIV-1)
[11] = target: HIV-1 Env of pseudovirus RHPA4259.7 (HIV-1)
[12] = target: HIV-1 Env of pseudovirus SC422661.8 (HIV-1)
[13] = target: HIV-1 Env of pseudovirus Ce1172_H1 (HIV-1)
[14] = target: HIV-1 Env of pseudovirus CNE30 (HIV-1)
[15] = target: HIV-1 Env of pseudovirus CAAN5342.A2 (HIV-1)
[16] = target: HIV-1 Env of pseudovirus 6240_08_TA5_4622 (HIV-1)
[17] = target: HIV-1 Env of pseudovirus 6535.3 (HIV-1)
[18] = target: HIV-1 Env of pseudovirus HIV-001428-2.42 (HIV-1)
[19] = target: HIV-1 Env of pseudovirus HIV-16055-2.3 (HIV-1)
[20] = target: HIV-1 Env of pseudovirus CNE58 (HIV-1)
[21] = target: HIV-1 Env of pseudovirus BF1266.431a (HIV-1)
[22] = target: HIV-1 Env of pseudovirus 0260.v5.c36 (HIV-1)
[23] = target: HIV-1 Env of pseudovirus 9004SS_A3_4 (HIV-1)
[24] = target: HIV-1 Env of pseudovirus 191955_A11 (HIV-1)

N49P19 (antibody)
IC50 [1]: > 50 µg/mL | IC80 [1]: > 50 µg/mL | MPI [1]: 5 | IC50 [2]: 0.263 µg/mL | IC80 [2]: 1.29 µg/mL | MPI [2]: 100 | IC50 [3]: 0.571 µg/mL | IC80 [3]: 1.82 µg/mL | MPI [3]: 100 | IC50 [4]: 17.1 µg/mL | IC80 [4]: > 50 µg/mL | MPI [4]: 69 | IC50 [5]: > 50 µg/mL | IC80 [5]: > 50 µg/mL | MPI [5]: 19 | IC50 [6]: > 50 µg/mL | IC80 [6]: > 50 µg/mL | MPI [6]: 17 | IC50 [7]: 0.14 µg/mL | IC80 [7]: 0.519 µg/mL | MPI [7]: 100 | IC50 [8]: > 50 µg/mL | IC80 [8]: > 50 µg/mL | MPI [8]: 0 | IC50 [9]: 0.282 µg/mL | IC80 [9]: 2.66 µg/mL | MPI [9]: 92 | IC50 [10]: > 50 µg/mL | IC80 [10]: > 50 µg/mL | MPI [10]: 31 | IC50 [11]: > 50 µg/mL | IC80 [11]: > 50 µg/mL | MPI [11]: 42 | IC50 [12]: 0.425 µg/mL | IC80 [12]: 1.42 µg/mL | MPI [12]: 100 | IC50 [13]: > 50 µg/mL | IC80 [13]: > 50 µg/mL | MPI [13]: 3 | IC50 [14]: 1.27 µg/mL | IC80 [14]: 4.28 µg/mL | MPI [14]: 100 | IC50 [15]: 1.24 µg/mL | IC80 [15]: 4.4 µg/mL | MPI [15]: 100 | IC50 [16]: 2.1 µg/mL | IC80 [16]: 7.52 µg/mL | MPI [16]: 100 | IC50 [17]: 9.09 µg/mL | IC80 [17]: 28.3 µg/mL | MPI [17]: 95 | IC50 [18]: > 50 µg/mL | IC80 [18]: > 50 µg/mL | MPI [18]: 44 | IC50 [19]: > 50 µg/mL | IC80 [19]: > 50 µg/mL | MPI [19]: 30 | IC50 [20]: > 50 µg/mL | IC80 [20]: > 50 µg/mL | MPI [20]: 43 | IC50 [21]: > 50 µg/mL | IC80 [21]: > 50 µg/mL | MPI [21]: 15

N49P9 (antibody)
IC50 [1]: 0.294 µg/mL | IC80 [1]: 1.99 µg/mL | MPI [1]: 98 | IC50 [2]: 0.058 µg/mL | IC80 [2]: 0.165 µg/mL | MPI [2]: 100 | IC50 [3]: 0.132 µg/mL | IC80 [3]: 0.366 µg/mL | MPI [3]: 100 | IC50 [4]: 1.41 µg/mL | IC80 [4]: 8.21 µg/mL | MPI [4]: 99 | IC50 [5]: > 50 µg/mL | IC80 [5]: > 50 µg/mL | MPI [5]: 48 | IC50 [6]: > 50 µg/mL | IC80 [6]: > 50 µg/mL | MPI [6]: 40 | IC50 [7]: 0.036 µg/mL | IC80 [7]: 0.123 µg/mL | MPI [7]: 100 | IC50 [8]: > 50 µg/mL | IC80 [8]: > 50 µg/mL | MPI [8]: 32 | IC50 [9]: 0.075 µg/mL | IC80 [9]: 0.349 µg/mL | MPI [9]: 99 | IC50 [10]: 0.189 µg/mL | IC80 [10]: 0.595 µg/mL | MPI [10]: 100 | IC50 [11]: 0.023 µg/mL | IC80 [11]: 0.078 µg/mL | MPI [11]: 100 | IC50 [12]: 0.241 µg/mL | IC80 [12]: 0.691 µg/mL | MPI [12]: 100 | IC50 [13]: 8.8 µg/mL | IC80 [13]: > 50 µg/mL | MPI [13]: 70 | IC50 [14]: 0.259 µg/mL | IC80 [14]: 0.693 µg/mL | MPI [14]: 100 | IC50 [15]: 2.09 µg/mL | IC80 [15]: 7.38 µg/mL | MPI [15]: 100 | IC50 [16]: 0.308 µg/mL | IC80 [16]: 1.26 µg/mL | MPI [16]: 100 | IC50 [17]: 0.552 µg/mL | IC80 [17]: 2.26 µg/mL | MPI [17]: 100 | IC50 [18]: 0.022 µg/mL | IC80 [18]: 0.106 µg/mL | MPI [18]: 99 | IC50 [19]: 0.077 µg/mL | IC80 [19]: 0.274 µg/mL | MPI [19]: 100 | IC50 [20]: 0.03 µg/mL | IC80 [20]: 0.081 µg/mL | MPI [20]: 100 | IC50 [21]: 0.154 µg/mL | IC80 [21]: 0.519 µg/mL | MPI [21]: 99

N49P9.1 (antibody)
IC50 [1]: 1.72 µg/mL | IC80 [1]: 19.6 µg/mL | MPI [1]: 88 | IC50 [2]: 0.051 µg/mL | IC80 [2]: 0.241 µg/mL | MPI [2]: 100 | IC50 [3]: 0.343 µg/mL | IC80 [3]: 1.5 µg/mL | MPI [3]: 100 | IC50 [4]: 1.65 µg/mL | IC80 [4]: 9.44 µg/mL | MPI [4]: 99 | IC50 [5]: > 50 µg/mL | IC80 [5]: > 50 µg/mL | MPI [5]: 11 | IC50 [6]: > 50 µg/mL | IC80 [6]: > 50 µg/mL | MPI [6]: 6 | IC50 [7]: 0.039 µg/mL | IC80 [7]: 0.148 µg/mL | MPI [7]: 100 | IC50 [8]: > 50 µg/mL | IC80 [8]: > 50 µg/mL | MPI [8]: 2 | IC50 [9]: 0.116 µg/mL | IC80 [9]: 0.497 µg/mL | MPI [9]: 95 | IC50 [10]: 0.284 µg/mL | IC80 [10]: 1.22 µg/mL | MPI [10]: 100 | IC50 [11]: 0.021 µg/mL | IC80 [11]: 0.066 µg/mL | MPI [11]: 100 | IC50 [12]: 0.127 µg/mL | IC80 [12]: 0.468 µg/mL | MPI [12]: 100 | IC50 [13]: > 50 µg/mL | IC80 [13]: > 50 µg/mL | MPI [13]: 42 | IC50 [14]: 0.271 µg/mL | IC80 [14]: 0.971 µg/mL | MPI [14]: 100 | IC50 [15]: 2.16 µg/mL | IC80 [15]: 8 µg/mL | MPI [15]: 99 | IC50 [16]: 0.716 µg/mL | IC80 [16]: 2.55 µg/mL | MPI [16]: 100 | IC50 [17]: 0.232 µg/mL | IC80 [17]: 2.06 µg/mL | MPI [17]: 100 | IC50 [18]: 0.037 µg/mL | IC80 [18]: 0.12 µg/mL | MPI [18]: 99 | IC50 [19]: 0.102 µg/mL | IC80 [19]: 0.362 µg/mL | MPI [19]: 100 | IC50 [20]: 0.027 µg/mL | IC80 [20]: 0.074 µg/mL | MPI [20]: 100 | IC50 [21]: 0.808 µg/mL | IC80 [21]: 3.14 µg/mL | MPI [21]: 95

10E8 (antibody)
IC50, titer in TZM.bl cells [1]: 1.82 µg/mL | IC80, titer in TZM.bl cells [1]: > 10 µg/mL | IC50, titer in TZM.bl cells [2]: 0.094 µg/mL | IC80, titer in TZM.bl cells [2]: 1.23 µg/mL | IC50, titer in TZM.bl cells [3]: 0.086 µg/mL | IC80, titer in TZM.bl cells [3]: 0.809 µg/mL | IC50, titer in TZM.bl cells [4]: 0.156 µg/mL | IC80, titer in TZM.bl cells [4]: 0.884 µg/mL | IC50, titer in TZM.bl cells [5]: 2.22 µg/mL | IC80, titer in TZM.bl cells [5]: 9.94 µg/mL | IC50, titer in TZM.bl cells [6]: 0.963 µg/mL | IC80, titer in TZM.bl cells [6]: 5.33 µg/mL | IC50, titer in TZM.bl cells [7]: 1.67 µg/mL | IC80, titer in TZM.bl cells [7]: 10 µg/mL | IC50, titer in TZM.bl cells [8]: 0.798 µg/mL | IC80, titer in TZM.bl cells [8]: 3.89 µg/mL | IC50, titer in TZM.bl cells [9]: 0.295 µg/mL | IC80, titer in TZM.bl cells [9]: 1.89 µg/mL | IC50, titer in TZM.bl cells [10]: 1.18 µg/mL | IC80, titer in TZM.bl cells [10]: 7.42 µg/mL | IC50, titer in TZM.bl cells [11]: 0.728 µg/mL | IC80, titer in TZM.bl cells [11]: 5.28 µg/mL | IC50, titer in TZM.bl cells [22]: > 10 µg/mL | IC80, titer in TZM.bl cells [22]: > 10 µg/mL | IC50, titer in TZM.bl cells [23]: 1.16 µg/mL | IC80, titer in TZM.bl cells [23]: 6.76 µg/mL | IC50, titer in TZM.bl cells [12]: 0.445 µg/mL | IC80, titer in TZM.bl cells [12]: 2.71 µg/mL | IC50, titer in TZM.bl cells [13]: 0.722 µg/mL | IC80, titer in TZM.bl cells [13]: 4.82 µg/mL | IC50, titer in TZM.bl cells [14]: 1.56 µg/mL | IC80, titer in TZM.bl cells [14]: 9.84 µg/mL | IC50, titer in TZM.bl cells [15]: 1.28 µg/mL | IC80, titer in TZM.bl cells [15]: 9.28 µg/mL | IC50, titer in TZM.bl cells [16]: 0.756 µg/mL | IC80, titer in TZM.bl cells [16]: 5.59 µg/mL | IC50, titer in TZM.bl cells [17]: 0.081 µg/mL | IC80, titer in TZM.bl cells [17]: 1.32 µg/mL | IC50, titer in TZM.bl cells [24]: 0.68 µg/mL | IC80, titer in TZM.bl cells [24]: 3.53 µg/mL | IC50, titer in TZM.bl cells [18]: 0.809 µg/mL | IC80, titer in TZM.bl cells [18]: 7.3 µg/mL | IC50, titer in TZM.bl cells [19]: 0.722 µg/mL | IC80, titer in TZM.bl cells [19]: 6.5 µg/mL | IC50, titer in TZM.bl cells [20]: 1.29 µg/mL | IC80, titer in TZM.bl cells [20]: 8.27 µg/mL | IC50, titer in TZM.bl cells [21]: 2.69 µg/mL | IC80, titer in TZM.bl cells [21]: > 10 µg/mL

Reference: patent US20230002480A1
